What was measured:
[1] = biological target: T1, EBNA2_(381–389) peptide with an additional Gly-Tyr dipeptide at the C-terminus (NH2-[…]-CONH2) (Epstein-Barr virus, strain B95-8, C-terminal amide (CONH2)); test: ITC
[2] = biological target: T1, EBNA2_(381–389) peptide with an …; test: ITC; N fixed to 1

QTKKKQWCYNCEEEAMAHCCWNTSYCSIKCQQEHWHAEHKRTCRRKR (domain or fragment) [BS69_(MYND) Y532A]
Kd [1]: 64.5 µM

QTKKKQWCYNCEEEAMYHCCWNTSYCSIKCQQEHWHAEHKRTCRAKR (domain or fragment) [BS69_(MYND) R560A]
Kd [2]: ~279 µM
